According to patent publication US20020103147A1:

Molecular target: transgene murine adenylylcyclase isoform VI (ACVI) with HA-tag, from the truncated construct of Example 5-2 (murine) (UniProt Q01341)
Test: cell-based or functional assay

transgene murine adenylylcyclase isoform VI (ACVI) with HA-tag, from the truncated construct of Example 5-2 (murine), sequence (Q01341 whole entry, the tested form may be a part, canonical isoform): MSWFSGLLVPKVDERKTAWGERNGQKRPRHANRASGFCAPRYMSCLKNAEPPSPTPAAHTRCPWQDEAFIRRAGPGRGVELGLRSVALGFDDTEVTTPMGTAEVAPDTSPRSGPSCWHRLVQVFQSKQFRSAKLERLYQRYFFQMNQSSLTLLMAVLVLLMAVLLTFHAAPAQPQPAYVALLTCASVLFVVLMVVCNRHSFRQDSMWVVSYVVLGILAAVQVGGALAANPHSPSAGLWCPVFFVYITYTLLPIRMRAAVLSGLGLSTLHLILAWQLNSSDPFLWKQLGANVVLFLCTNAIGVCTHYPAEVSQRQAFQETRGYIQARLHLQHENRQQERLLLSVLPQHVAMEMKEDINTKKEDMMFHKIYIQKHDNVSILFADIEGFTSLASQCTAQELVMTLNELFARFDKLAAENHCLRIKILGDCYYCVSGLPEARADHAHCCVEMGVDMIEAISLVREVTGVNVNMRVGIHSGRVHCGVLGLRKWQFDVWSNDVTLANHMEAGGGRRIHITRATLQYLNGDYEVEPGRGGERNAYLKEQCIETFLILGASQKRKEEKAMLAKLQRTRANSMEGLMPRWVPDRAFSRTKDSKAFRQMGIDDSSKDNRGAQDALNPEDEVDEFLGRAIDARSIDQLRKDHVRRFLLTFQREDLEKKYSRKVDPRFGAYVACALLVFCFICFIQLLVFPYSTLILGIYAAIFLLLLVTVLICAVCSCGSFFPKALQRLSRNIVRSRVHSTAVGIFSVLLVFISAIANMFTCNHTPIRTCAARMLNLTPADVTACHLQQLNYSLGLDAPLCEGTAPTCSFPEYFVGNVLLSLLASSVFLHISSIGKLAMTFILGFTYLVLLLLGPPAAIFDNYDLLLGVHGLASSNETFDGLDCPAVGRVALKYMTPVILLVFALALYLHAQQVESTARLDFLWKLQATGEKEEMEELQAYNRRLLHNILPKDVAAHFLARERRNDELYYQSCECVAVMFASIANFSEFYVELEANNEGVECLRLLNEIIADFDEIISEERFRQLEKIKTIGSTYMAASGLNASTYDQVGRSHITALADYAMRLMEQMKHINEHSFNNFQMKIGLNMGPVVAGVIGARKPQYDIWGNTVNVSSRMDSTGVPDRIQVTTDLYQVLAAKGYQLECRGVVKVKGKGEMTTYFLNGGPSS

Net GTP gamma S-stimulated forskolin binding: 447 cpm
Substance: Gs (stimulatory GTP-binding protein) of neonatal rat cardiac myocytes (from UniProt P63095 2-394)
